Reference: PMC9363421
Blank lines part the entries; values can stand above or below the substance they belong to.

Columns and labels:
[1] = target: GFAT1 (UniProt Q06210); assay: His-TAB1 pull-down after JNK reaction; details: reference: His-TAB1 WT treated with JNK; sites S438
[2] = target: GFAT1 (UniProt Q06210); assay: GST pull-down after in vitro kinase reaction; details: sites S438
[3] = target: GFAT1 (UniProt Q06210); assay: co-immunoprecipitation of TAB1 mutants; details: reference: wild type; sites S438

- binding against the reference [1]: weaker
Substance: TAB1 (from UniProt Q15750) His-TAB1-S438A treated with JNK

- binding against the reference ([2]; reference: His-TAB1 WT treated with JNK1): weaker
Substance: TAB1 (from UniProt Q15750) His-TAB1-S438A treated with JNK1

- binding against the reference ([2]; reference: His-TAB1 WT treated with p38α): weaker
Substance: TAB1 (from UniProt Q15750) His-TAB1-S438A treated with p38α

- binding against the reference [3]: weaker
Substance: TAB1 (from UniProt Q15750) S438A
